# Laboratory results: article PMC9621051 (mAbs, 2022)
# B1: phospholipase D3 (PLD3) (enzyme)
# chain: MKPKLMYQELKVPVEEPAGELPVNEIEAWKAAEKKARWVLLVLILAVVGFGALMTQLFLWEYGDLHLFGPNQRPAPCYDPCEAVLVESIPEGLEFPNATTSNPSTSQAWLGLLAGAHSSLDIASFYWTLTNNDTHTQEPSAQQGEEILQQLQALAPRGVKVRIAVSKPNGPLADLQSLLQSGAQVRMVDMQKLTHGVLHTKFWVVDQTHFYLGSANMDWRSLTQVKELGVVMYNCSCLARDLTKIFEAYWFLGQAGSSIPSTWPRPFDTRYNQETPMEICLNGTPALAYLASAPPPLCPSGRTPDLKALLSVVDSARSFIYIAVMNYLPTMEFSHPRRFWPAIDDGLRRAAYERGVKVRLLVSCWGHSEPSMRSFLLSLAALRDNHTHSDIQVKLFVVPADEAQARIPYARVNHNKYMVTERAVYIGTSNWSGSYFTETAGTSLLVTQNGHDGLRSQLEDVFLRDWNSLYSHNLDTAADSVGNACRLL
# Biological target: the molecule itself
# Test: native MS
protein,measurement,value
B1,stoichiometry N,2
